Residue numbers refer to the chain shown, from its start.
B1: DDR1-6 (antibody, V domains shown)
VH: SQSLKESGGDLVKPGASRTLTCIAPGFSFSSSYYMCWVRQAPGKGLEWIACIYASSGSTYYASWAKGRFTISKTSSTTVTLQMTTLTAADTATYFCAAILGADYRLTRLDLWGQGTLVTVSS
VL: ELVMTQTPSPVSAAVGGTVTISCQSSQSVYSNYLSWYQQKPGQPPKLLIYETSTLASGVPSRFKGSGSGTQFTLTISDVQCDDAATYYCQGGYSEIIENTFGGGTEVEIK
notes: also called DDR1-6K/DDR1-6H
B2: DDR1-11 (antibody, V domains shown)
VH: QSLEESGGDLVKPGASLTLTCTASGFSFSSGYYMCWVRQAPGKGLEWIACIYTGRTDFTDYASWAKGRFTISKTSSTTVTLQLTTLTAADTATYFCARGDYSGGVGGNYWLDLWGQGTLVTISS
VL: ELVMTQTASPVSAAVGGTVTINCQASQSIGSTYLSWYQQKPGQPPKLLIYKASILASGVPSRFSGSGSGTEYTLTISGVQCDDAATYYCLYGGFGSSTGDAFGGGTVLVVK
notes: also called DDR1-11K/DDR1-11H
B3: DDR1-23 (antibody, V domains shown)
VH: SQSVKESGGDLVKPGASLTLTCKASGFDLRSYYYMCWVRQAPGKGLEWIACIHGGEGNTYYASWAKGRFTISKTSSTAVTLQMTSLTAADTATYFCARGGWTNYFWGPGTLVTVSS
VL: ELVLTQTPSSVSAAVGGTVTISCQSSQSVYSNNYLAWYQQKPGQPPKLLIYAASTLASGVPSRFKGSGSGTQFTLTISGVQCDDAAVYYCLGGYNDDANFGGGTEVEIK
notes: also called DDR1-23K/DDR1-23H
B4: DDR1-26 (antibody, V domains shown)
VH: EQSLKESGGDLVKPGASLTLTCTASGFDLSSNYYMCWVRQAPGKGPEWIACIYSSNTRTWYARWAKGRFTISKTSSTAVTLQMTSLTAADTATYFCARGGWTNYLWGPGTLVTISS
VL: B3 VL with V3D, Q27E, Y34H, K65S, E107V, I108V
notes: also called DDR1-26K/DDR1-26H
B5: DDR1-5 (antibody, V domains shown)
VH: QSVKESGGRLVTPGTPLTLTCTVSGFTLSNNAISWVRQAPGKGLEWIGIIYASGRTYYATWAKGRFTISKTSTTVDLKMTSPTTEDTATYFCARGDTETDYGIPYFDLWGPGTLVTISS
VL: ELVLTQTPASVSEPVGGTVTIKCQASQTISSWLSWYQQKPGQPPKLLIYYAFNLASGVPSRFKGSGSGTEYTLTISDLECADAATYYCQCTYGSGSSSSYGCAFGGGTELEIK
notes: also called DDR1-5K/DDR1-5H
B6: DDR1-17 (antibody, V domains shown)
VH: SSVEESGGRLVAPGTPLTLTCTVSGFSLNRYAMSWVRQAPGKGLEWIGIIGSSGSTYYASWAKGRFTISKTSTTVDLKITSPTTEDTATYFCARDLDDSYGYTYATGMDIRLDLWGQGTLVTVSS
VL: ELVLTQTPASVSEPVGGTVTIKCQASQSIGSYLSWYQQKAGQPPKRLIYEASTLASGVPSRFSGSGSGTDFTLTISDLECADVATYYCQNNNGMTVSDFNAFGGGTEVEIK
notes: also called DDR1-17K/DDR1-17H
B7: DDR1-20 (antibody, V domains shown)
VH: QSVKESGGGLFKPMDTLTLTCTVSGFSLSDYAMSWVRQAPGKGLEWIGIINSRDDTGYASWAKGRFTISKTSSTTVDLRITSPTTEDTATYFCAREDSSIPFIVGNYYGMDLWGPGTLVTVSS
VL: ELDLTQTPASVSAAVGGTVTINCQSSQIIDHDHLSWYQQKPGQRPKLLIYRASTLTSGVPSRFKGSGSGTDFTLTISDLECADVATYYCQNNNGMTVSDFNAFGGGTEVEIK
notes: also called DDR1-20K/DDR1-20H
B8: DDR1-12 (antibody, V domains shown)
VH: QSLEESGGRLVTPGTPLTLTCTVSGIDLSNTWMNWVRQAPGKGLEWIGVITDSGTTYYANWAKGRFTISRTSTTVDLKMPSLTTEDTATYFCGRDPGDITSGTNDLWGPGTLVTISS
VL: ELVLTQTPASVSEPVGGTVTIKCQASQTIYSNLAWYQQKPGQRPKLLIYQASKLASGVPSRFKGSGSGTEYTLTISDLECADAATYYCQSYYGADDYTFGGGTEVVVK
notes: also called DDR1-12K/DDR1-12H

Each binder was assayed against T1, Human DDR1 extracellular domain (ECD) protein (human, UniProt Q08345 21-417) (assay: ELISA on DDR1, antibody at 10 and 1 µg/ml).
T1 construct: it is treated here as the same molecule; also called recombinant human DDR1 ECD; huDDR1 ECD; not shown: 6xHIS-tag
T1 sequence (Q08345 21-417): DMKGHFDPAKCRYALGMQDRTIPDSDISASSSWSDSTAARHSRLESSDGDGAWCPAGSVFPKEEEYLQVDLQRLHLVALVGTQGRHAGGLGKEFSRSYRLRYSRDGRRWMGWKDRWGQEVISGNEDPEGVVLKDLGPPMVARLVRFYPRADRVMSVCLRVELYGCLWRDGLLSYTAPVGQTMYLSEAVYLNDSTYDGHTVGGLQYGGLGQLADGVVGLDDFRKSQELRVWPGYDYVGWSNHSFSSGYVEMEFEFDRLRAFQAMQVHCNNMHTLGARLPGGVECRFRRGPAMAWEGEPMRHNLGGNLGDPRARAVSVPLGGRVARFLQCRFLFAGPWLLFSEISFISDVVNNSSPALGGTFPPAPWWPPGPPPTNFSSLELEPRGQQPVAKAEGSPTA

Binding result, binds:
B1
B2
B3
B4
B5
B6
B7
B8
